The test has as its target 2G12 IgG monomer (human). Nature of the test: SEC. A general note: SEC sorts molecules by how far they enter the pores of the column.

Broadly, the stoichiometry N is the number of molecules, sites or subunits per partner or assembly. Turning to 2G12 IgG monomer (antibody), the stoichiometry N stood at 3.

For the origin of these results see article PMC3919625.
